From the DeepSol protein solubility set

Experiment: soluble on expression in E. coli; label from the status in PepcDB or PDB records

**Q.** Which “soluble on expression in E. coli” value does the source give for “MTIYTLSHGSLKLDVSDQGGVIEGFWRDTTPLLRPGKKSGVATDASCFPLVPFANRVSGNRFVWQGREYQLQPNVEWDAHYLHGDGWLGEWQCVSHSDDSLCLVYEHRSGVYHYRVSQAFHLTADTLTVTLSVTNQGAETLPFGTGWHPYFPLSPQTRIQAQASGYWLEREQWLAGEFCEQLPQELDFNQPAPLPRQWVNNGFAGWNGQARIEQPQEGYAIIMETTPPAPCYFIFVSDPAFDKGYAFDFFCLEPMSHAPDDHHRPEGGDLIALAPGESTTSEMSLRVEWLLEHHHHHH” here?
**A.** The value was “soluble”.

**Q.** Which “soluble on expression in E. coli” value does the source give for “MTKAETSIGVFYVSEYGYSDRLAQAIINGITKTGVGVDVVDLGAAVDLQELRELVGRCTGLVIGMSPAASAASIQGALSTILGSVNEKQAVGIFETGGGDDEPIDPLLSKFRNLGLTTAFPAIRIKQTPTENTYKLCEEAGTDLGQWVTRDRSIKAMKSLGLEHHHHHH” here?
**A.** The value was “soluble”.

**Q.** For “MTKERFVISRRRTGFGDCLWSLASAWSYAQRTGRTLVIDWRGSCYVEQPFSNAFPAFFEPVEDIAGVPVICDDRVNQLSFPGPFFPRWWNRPSIDCINRPDEQIFRERDELTELFQAREDSEANTIVCDACLMWRCSEEAERLIFRNIKLRSEIRARIDALYEEHFSGHSIIGVHVRHGNGEDIMEHAPYWADSELALHQVCMAIRKAKALSYPKPVKVFLCTDSAQVLDQVSGLFPDVFAVPKRFQADRAGPLHSAEMGIEGGASALIDMYLLARCATVIRFPPTSAFTRYARLLVPRIIEFDLSNPGHLTMIDNPYEHFAASHHHHHH”, which “soluble on expression in E. coli” value is on record?
**A.** The value was “soluble”.

**Q.** For “MTKIFEAKVLAVGPEALSMIKDANMLILFGEEAPQDLADYCYKIDNKNLSGHIKKGGHLVINGNDCQITAVGSVVEKNLTGLGHITISLDGSKESSLPGTLHIQAEFPVQLEAGSLIQIFD”, which “soluble on expression in E. coli” value is on record?
**A.** The value was “soluble”.

**Q.** For “MTKKDKKEVKVQTVTTEDGETVKVFEDLQGFETFIANETEDDDFDHLHCKLNYYPPFVLHESHEDPEKISDAANSHSKKFVRHLHQHIEKHLLKDIKQAVRKPELKFHEKSKEETFDKITWHYGEETEYHGRPFKIDVQVVCTHEDAMVFVDYKTHPVGAN”, which “soluble on expression in E. coli” value is on record?
**A.** Its value is “soluble”.

**Q.** With “MTKQDQLIVEKMEQTYEAFSPKLANLIEALDAFKEHYEEYATLRNFYSSDEWFRLANQPWDDIPCGVLSEDLLFDMIGDHNQLLADILDLAPIMYKHM” as the sequence, how does the “soluble on expression in E. coli” value read?
**A.** The value was “not soluble”.

**Q.** With “MTKSKSKKEDLIPEIGDFTKFFKSRSKFSDQITDVISNVYEWSTSLEPSEDNLPLPFVSKNEEVVWSYLKHQNKQLDGINKKYKGFLSELIGKSHIRVAAKIQDSEGSEDGSDGSDGGSEEELDDDEEELEDEELEDEMIDDEDEADLFNLSESDLKTLDADLKKMEEEEAGEEKEEVEKATEQPKKFKKSIVDDQFFNLDEMHDFLQKTERAGGKKAAQDEEMMFEDEDSWDGKTDYTYEDFFGSRETVAETEKMNGEKKKIEKDKKRKAGDKADLSLDDGKNKKRVRFAMDEEPEEEEVEDEEQEDINDEEEPPEDEPVLLGADLEEPKEESAFAKRQSKMKERIAKLEEENLAPKSWELSGEVAADQRDQNTLLEKHVDFDHGAKRAPEVTEEFTDRLESLIKQRIRDKAWDDVIRVKKVEAKGAKFETEAIENQMNQKTSLAEVYEKEYQNSTGNSADGAAGATKPNEAHEAIKSKMGDLFRLIDALTHFEYKPDQAREEVKVVSNMAALRVEEVGITASTEAQLMAPEEISKKMKAIEKSKDERDATDKARERRQKKAKQRSMLEKFGEERVFGEQKAVKLAKKERKAGKEKGGGVDKIKSSNFFAKLQETVAAEKKDGAVTKKKKKIVKRLKSDKNSAAIKL” as the sequence, how does the “soluble on expression in E. coli” value read?
**A.** Its value is “not soluble”.

**Q.** For “MTLEIRPAVPADAEQILAFIIELADYERARHEVVTDVEGIRRSLFAEGSPTRALMCLSEGRPIGYAVYFYSYSTWLGRNGIYLEDLYVTPEYRGVGAGRRLLRELAREAVANDCGRLEWSVLDWNQPAIDFYRSIGALPQDEWVRYRLDGEALRKMAE”, which “soluble on expression in E. coli” value is on record?
**A.** Its value is “soluble”.

**Q.** For “MTLISPELKTQGFYASSYKGTDLIGLTKHYFREKHMKQLMLTLGIVNTYDKIKVLDAHYRAIARAAPICHAFGFHLALYDFPFKMTAEELVAFVMEKTTIGESGSYLKILYEKNHLSVSDLPKKGFPSQFGETVITTSKPDPKRKVMPVKIAEEALHNRSFLFLVGLGHKGLPKELFERGKYHLDITSKGLSLETCTAIGAVPAHLAGLMENLRCKK”, which “soluble on expression in E. coli” value is on record?
**A.** Its value is “not soluble”.
